The source of these data is paper PMC11272775, “Epigenetic memory is governed by an effector recruitment specificity toggle in Heterochromatin Protein 1” (Nature Communications, 2024).

Data set [1] concerns Swi6-WT (Schizosaccharomyces pombe). Put plainly: EMSA. As to conditions: 20 mM Hepes pH 7.5, 4 mM Tris, 80 mM KCl, 0.1% Igepal CA-630, 0.2 mM EDTA, 2 mM DTT, 10% glycerol, 10 nM mononucleosome, 30 °C 45 min, 6% acrylamide 0.5x TBE …. For orientation: In EMSA bound probe runs differently from free probe, usually more slowly.
Data set [2] concerns the molecule itself. Put plainly: mass photometry; full-length recombinant Swi6 at 2.5-20 nM in 20 mM HEPES pH 7.5, 100 mM KCl; apparent dimerization constants (Kdim) from the relative abundance of monomer and dimer; dimer to monomers.
The next data set has as its target H3K9me3 mononucleosomes. Put plainly: native gel or EMSA; Swi6 varied, 10 nM mononucleosomes; 20 mM Hepes pH 7.5, 4 mM tris, 80 mM KCl, 0.1% Igepal CA-630, 0.2 mM EDTA, 2 mM DTT, 10% glycerol; 30 °C for 45 min; unbound nucleosome band quantified; apparent K1/2.
The target in a further data set is T1, MBP-Epe1 (S. pombe, UniProt O94603 1-948).
T1 construct: Epe1, S. pombe, full-length; also called MBP-His-TEV-Epe1; recombinant MBP-Epe1 fusion protein; source: Hi5 cells infected with baculovirus, purified (amylose resin, Superdex 200); not shown: MBP, N-terminal, kept
T1 sequence (looked up): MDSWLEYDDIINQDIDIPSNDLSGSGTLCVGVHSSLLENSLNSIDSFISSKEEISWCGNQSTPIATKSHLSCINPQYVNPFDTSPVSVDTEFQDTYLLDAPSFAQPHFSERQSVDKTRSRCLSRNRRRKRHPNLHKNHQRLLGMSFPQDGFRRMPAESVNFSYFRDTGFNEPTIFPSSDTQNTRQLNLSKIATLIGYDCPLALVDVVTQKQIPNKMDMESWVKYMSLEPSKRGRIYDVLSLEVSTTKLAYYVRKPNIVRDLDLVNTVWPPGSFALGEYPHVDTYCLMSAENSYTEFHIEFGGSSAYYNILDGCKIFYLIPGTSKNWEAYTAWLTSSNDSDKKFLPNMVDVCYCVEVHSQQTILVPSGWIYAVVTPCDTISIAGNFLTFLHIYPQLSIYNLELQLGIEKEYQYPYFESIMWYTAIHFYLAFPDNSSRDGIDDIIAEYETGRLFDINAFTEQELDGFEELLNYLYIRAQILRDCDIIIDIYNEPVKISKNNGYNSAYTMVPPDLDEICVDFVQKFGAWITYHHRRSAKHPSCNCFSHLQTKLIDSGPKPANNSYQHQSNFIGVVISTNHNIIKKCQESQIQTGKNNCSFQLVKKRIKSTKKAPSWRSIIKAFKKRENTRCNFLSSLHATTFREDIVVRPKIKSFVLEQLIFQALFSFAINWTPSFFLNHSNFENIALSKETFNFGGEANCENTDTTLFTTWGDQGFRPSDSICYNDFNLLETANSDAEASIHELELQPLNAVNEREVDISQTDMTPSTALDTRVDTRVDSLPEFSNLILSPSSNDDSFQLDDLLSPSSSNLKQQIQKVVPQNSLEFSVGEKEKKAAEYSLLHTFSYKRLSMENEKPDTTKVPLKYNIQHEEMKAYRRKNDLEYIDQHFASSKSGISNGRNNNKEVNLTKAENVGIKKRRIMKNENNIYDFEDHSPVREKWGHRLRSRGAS
Description: pull-down; recombinant 3X FLAG-Swi6 immobilised on FLAG M2 beads, three concentrations of recombinant MBP-Epe1; 20 mM HEPES pH 7.5, 150 mM NaCl, 5 mM MgCl2, 10% glycerol, 0.25% Triton X-100, 1 mM DTT; 2 h at 4 °C; blots with anti-MBP and M2 Flag antibodies. As to conditions: both partners purified.

Substitutions are numbered along the chain they refer to. Names may count otherwise.

In data set [1] (H3K9me0 histone, unmodified H3 (H3K9me0)), H3K9me0 mononucleosome registered a binding signal (fold weaker than H3K9me3) of 2.4.
In turn, H3K9me3 mononucleosome yielded a K half in data set [1] (H3K9me3 histone, histone H3K9me3 (DNA unmodified)) of 50 nM.

B1: Swi6-WT (recombinant, full-length) (natural protein, S. pombe, UniProt P40381 1-328, looked up)
chain: MKKGGVRSYRRSSTSKRSVIDDDSEPELPSMTKEAIASHKADSGSSDNEVESDHESKSSSKKLKENAKEEEGGEEEEEDEYVVEKVLKHRMARKGGGYEYLLKWEGYDDPSDNTWSSEADCSGCKQLIEAYWNEHGGRPEPSKRKRTARPKKPEAKEPSPKSRKTDEDKHDKDSNEKIEDVNEKTIKFADKSQEEFNENGPPSGQPNGHIESDNESKSPSQKESNESEDIQIAETPSNVTPKKKPSPEVPKLPDNRELTVKQVENYDSWEDLVSSIDTIERKDDGTLEIYLTWKNGAISHHPSTITNKKCPQKMLQFYESHLTFRENE
notes: Swi6, HP1 homolog of S. pombe; MW 37,292.6 g/mol; source: E. coli BL21(DE3)-RIPL, purified (Ni-NTA, anion exchange, SEC); not shown: 6XHis, N-terminal, cleaved
By stoichiometry N is commonly meant the number of molecules, sites or subunits per partner or assembly. As for B1, in data set [2], the Kd came out at 0.38 nM and the “stoichiometry N” value turned out to be 2. For the same molecule, in the data set with H3K9me3 mononucleosomes, the apparent K1/2 is 50 nM and the specificity for H3K9me3 over H3K9me0 mononucleosomes was 2.4 fold.

B2: 3X FLAG-Swi6-WT (recombinant) (natural protein, S. pombe, UniProt P40381 1-328, looked up)
chain: B1 chain
notes: Swi6, HP1 homolog of S. pombe; source: E. coli BL21(DE3)-RIPL, purified (recombinant); not shown: 6XHis, N-terminal, cleaved
B2: in the data set with MBP-Epe1, the binding result is recorded as “binds”.

B3: Swi6-T278K (recombinant, full-length) (natural protein, S. pombe, UniProt P40381 1-328, looked up)
chain: B1 chain with T278K
notes: Swi6, HP1 homolog of S. pombe, with T278K; MW 37,319.7 g/mol; also called Swi6-K; source: E. coli BL21(DE3)-RIPL, purified (Ni-NTA, anion exchange, SEC); not shown: 6XHis, N-terminal, cleaved
As for B3, in data set [2], the Kd was 0.2 nM and the “stoichiometry N” value stood at 2.

B4: Swi6-T278Y (recombinant, full-length) (natural protein, S. pombe, UniProt P40381 1-328, looked up)
chain: B1 chain with T278Y
notes: Swi6, HP1 homolog of S. pombe, with T278Y; MW 37,354.7 g/mol; also called Swi6-Y; source: E. coli BL21(DE3)-RIPL, purified (Ni-NTA, anion exchange, SEC); not shown: 6XHis, N-terminal, cleaved
As for B4, in data set [2], the Kd was 0.27 nM and the “stoichiometry N” value came out at 2. In the data set with H3K9me3 mononucleosomes, the apparent K1/2 turned out to be 39 nM and the specificity for H3K9me3 over H3K9me0 mononucleosomes came to 2.3 fold.
